In patent US20210054097A1 (Novo Nordisk, published 2021):
Ends that are not written are not given here.

T1: FX activation peptide 12-mer DLLDFNQTQPER (human)
T1 peptide: DLLDFNQTQPER-biotin

T2: FX activation peptide 12-mer EAPDSITWKPYD (human)
T2 peptide: EAPDSITWKPYD-biotin

T3: FX activation peptide 12-mer TSSSGEAPDSIT (human)
T3 peptide: TSSSGEAPDSIT-biotin

T4: FX activation peptide 12-mer DLDPTENPFDLL (human)
T4 peptide: DLDPTENPFDLL-biotin

T5: FX activation peptide 12-mer SGEAPDSITWKP (human)
T5 peptide: SGEAPDSITWKP-biotin

T6: FX activation peptide 12-mer NPFDLLDFNQTQ (human)
T6 peptide: NPFDLLDFNQTQ-biotin

T7: FX activation peptide 12-mer ENPFDLLDFNQT (human)
T7 peptide: ENPFDLLDFNQT-biotin

T8: FX activation peptide 12-mer FDLLDFNQTQPE (human)
T8 peptide: FDLLDFNQTQPE-biotin

T9: FX activation peptide 12-mer TWKPYDAADLDP (human)
T9 peptide: TWKPYDAADLDP-biotin

T10: FX activation peptide 12-mer TENPFDLLDFNQ (human)
T10 peptide: TENPFDLLDFNQ-biotin

T11: FX activation peptide 12-mer ATSSSGEAPDSI (human)
T11 peptide: ATSSSGEAPDSI-biotin

T12: FX activation peptide 12-mer DFNQTQPERGDN (human)
T12 peptide: DFNQTQPERGDN-biotin

T13: FX activation peptide 12-mer SITWKPYDAADL (human)
T13 peptide: SITWKPYDAADL-biotin

T14: FX activation peptide 12-mer WKPYDAADLDPT (human)
T14 peptide: WKPYDAADLDPT-biotin

T15: FX activation peptide 12-mer DAADLDPTENPF (human)
T15 peptide: DAADLDPTENPF-biotin

T16: FX activation peptide 12-mer ITWKPYDAADLD (human)
T16 peptide: ITWKPYDAADLD-biotin

T17: FX activation peptide 12-mer LLDFNQTQPERG (human)
T17 peptide: LLDFNQTQPERG-biotin

T18: FX activation peptide 12-mer PYDAADLDPTEN (human)
T18 peptide: PYDAADLDPTEN-biotin

T19: FX activation peptide 12-mer SSGEAPDSITWK (human)
T19 peptide: SSGEAPDSITWK-biotin

T20: FX activation peptide 12-mer QTQPERGDNNLT (human)
T20 peptide: QTQPERGDNNLT-biotin

T21: FX activation peptide 12-mer KPYDAADLDPTE (human)
T21 peptide: KPYDAADLDPTE-biotin

T22: FX activation peptide 12-mer SVAQATSSSGEA (human)
T22 peptide: SVAQATSSSGEA-biotin

T23: FX activation peptide 12-mer QATSSSGEAPDS (human)
T23 peptide: QATSSSGEAPDS-biotin

T24: FX activation peptide 12-mer LDFNQTQPERGD (human)
T24 peptide: LDFNQTQPERGD-biotin

T25: FX activation peptide 12-mer FNQTQPERGDNN (human)
T25 peptide: FNQTQPERGDNN-biotin

T26: FX activation peptide 12-mer ADLDPTENPFDL (human)
T26 peptide: ADLDPTENPFDL-biotin

T27: FX activation peptide 12-mer YDAADLDPTENP (human)
T27 peptide: YDAADLDPTENP-biotin

T28: FX activation peptide 12-mer AQATSSSGEAPD (human)
T28 peptide: AQATSSSGEAPD-biotin

T29: FX activation peptide 12-mer APDSITWKPYDA (human)
T29 peptide: APDSITWKPYDA-biotin

T30: FX activation peptide 12-mer TQPERGDNNLTR (human)
T30 peptide: TQPERGDNNLTR-biotin

T31: FX activation peptide 12-mer LDPTENPFDLLD (human)
T31 peptide: LDPTENPFDLLD-biotin

B1: Nb 729C08 (VHH)
VHH: EVQLVESGGGVVQPGGSLRLSCAASGFTFSDYAMSWVRQAPGKGLEWVSGITGGGRTYYADSVKGRFTISRDNSKNTLYLQMNSLRPEDTALYYCAAAILTRTRRTYDYWGQGTLVTVSS
notes: monovalent Nanobody; also called Nb 729008; not shown: C-terminal FLAG3 and HIS6 tag
B2: Nb 701B09 (VHH)
VHH: EVQLVESGGGVVQPGGSLRLSCAASGRTFSTYAMGWFRQAPGKEREFVAAISWSGSRTYYADSVKGRFTISRDNSKNTVYLQMNSLRPEDTALYYCAADATPANGELDYWGQGTLVTVSS
notes: monovalent Nanobody; also called Nb 701609; not shown: C-terminal FLAG3 and HIS6 tag
B3: Nb 702C12 (VHH)
VHH: EVQLVESGGGVVQPGGSLRLSCVASGRTFSRYAMGWFRQAPGKEREFVAAISRRGGSTNYADSVKGRFTISRDNSKNTVYLQMNSLRPEDTALYYCAADYSSGDGYLDYWGQGTLVTVSS
notes: monovalent Nanobody; not shown: C-terminal FLAG3 and HIS6 tag

Tests used:
[1] = biological target: human plasma-derived Factor X zymogen (human, UniProt P00742 41-179; P00742 183-488); test: cell-based or functional assay
[2] = biological target: T1, FX activation peptide 12-mer …; test: peptide ELISA
Procedure: (§1) The peptides were C-terminally conjugated to biotin and 50 μL of 1 μg/mL peptide solution was used for immobilization in discrete wells of the microtiter plate which was pre-coated with 1 μg/mL streptavidin. Each well was washed with washing buffer (10 mM Tris, 150 mM NaCl, 2.5 mM CaCl₂, 0.05% Tween 20, pH 8.60) followed by addition of 50 μL of 2 μg/mL FLAG-tagged anti-FX Nanobody® or IgG antibody to be tested. After 1 hour non-bound Nanobody®/antibody was washed off using washing buffer.
(§2) Bound anti-FX activation peptide ligand was detected by first binding a HRP-labelled secondary antibody (for FLAG-tagged Nanobodies: Anti-FLAG mAb M2-Peroxidase (HRP) (Sigma Aldrich, US), for antibody: Fcγ Fragment Specific Peroxidase AffiniPure F(ab′)₂ Fragment Goat Anti-Human IgG (Jackson ImmunoResearch Laboratories, Inc., US), or Peroxidase AffiniPure Goat Anti-Mouse IgG (Jackson ImmunoResearch Laboratories, Inc., US)) for 1 hour, and then adding 100 μL TMB-1 ELISA substrate (Kem-En-Tec Diagnostics, Denmark).

[3] = biological target: T2, FX activation peptide 12-mer …; test: peptide ELISA
Procedure: as §1, §2

[4] = biological target: T3, FX activation peptide 12-mer …; test: peptide ELISA
Procedure: as §1, §2

[5] = biological target: T4, FX activation peptide 12-mer …; test: peptide ELISA
Procedure: as §1, §2

[6] = biological target: T5, FX activation peptide 12-mer …; test: peptide ELISA
Procedure: as §1, §2

[7] = biological target: T6, FX activation peptide 12-mer …; test: peptide ELISA
Procedure: as §1, §2

[8] = biological target: T7, FX activation peptide 12-mer …; test: peptide ELISA
Procedure: as §1, §2

[9] = biological target: T8, FX activation peptide 12-mer …; test: peptide ELISA
Procedure: as §1, §2

[10] = biological target: T9, FX activation peptide 12-mer …; test: peptide ELISA
Procedure: as §1, §2

[11] = biological target: T10, FX activation peptide 12-mer …; test: peptide ELISA
Procedure: as §1, §2

[12] = biological target: T11, FX activation peptide 12-mer …; test: peptide ELISA
Procedure: as §1, §2

[13] = biological target: T12, FX activation peptide 12-mer …; test: peptide ELISA
Procedure: as §1, §2

[14] = biological target: T13, FX activation peptide 12-mer …; test: peptide ELISA
Procedure: as §1, §2

[15] = biological target: T14, FX activation peptide 12-mer …; test: peptide ELISA
Procedure: as §1, §2

[16] = biological target: T15, FX activation peptide 12-mer …; test: peptide ELISA
Procedure: as §1, §2

[17] = biological target: T16, FX activation peptide 12-mer …; test: peptide ELISA
Procedure: as §1, §2

[18] = biological target: T17, FX activation peptide 12-mer …; test: peptide ELISA
Procedure: as §1, §2

[19] = biological target: T18, FX activation peptide 12-mer …; test: peptide ELISA
Procedure: as §1, §2

[20] = biological target: T19, FX activation peptide 12-mer …; test: peptide ELISA
Procedure: as §1, §2

[21] = biological target: T20, FX activation peptide 12-mer …; test: peptide ELISA
Procedure: as §1, §2

[22] = biological target: T21, FX activation peptide 12-mer …; test: peptide ELISA
Procedure: as §1, §2

[23] = biological target: T22, FX activation peptide 12-mer …; test: peptide ELISA
Procedure: as §1, §2

[24] = biological target: T23, FX activation peptide 12-mer …; test: peptide ELISA
Procedure: as §1, §2

[25] = biological target: T24, FX activation peptide 12-mer …; test: peptide ELISA
Procedure: as §1, §2

[26] = biological target: T25, FX activation peptide 12-mer …; test: peptide ELISA
Procedure: as §1, §2

[27] = biological target: T26, FX activation peptide 12-mer …; test: peptide ELISA
Procedure: as §1, §2

[28] = biological target: T27, FX activation peptide 12-mer …; test: peptide ELISA
Procedure: as §1, §2

[29] = biological target: T28, FX activation peptide 12-mer …; test: peptide ELISA
Procedure: as §1, §2

[30] = biological target: T29, FX activation peptide 12-mer …; test: peptide ELISA
Procedure: as §1, §2

[31] = biological target: T30, FX activation peptide 12-mer …; test: peptide ELISA
Procedure: as §1, §2

[32] = biological target: T31, FX activation peptide 12-mer …; test: peptide ELISA
Procedure: as §1, §2

Chain of human plasma-derived Factor X zymogen (P00742 41-179, chain 1 of 2): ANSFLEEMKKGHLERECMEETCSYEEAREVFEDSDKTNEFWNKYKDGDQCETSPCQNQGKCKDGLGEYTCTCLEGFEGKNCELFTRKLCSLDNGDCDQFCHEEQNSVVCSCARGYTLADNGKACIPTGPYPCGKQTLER
Chain of human plasma-derived Factor X zymogen (P00742 183-488, chain 2 of 2): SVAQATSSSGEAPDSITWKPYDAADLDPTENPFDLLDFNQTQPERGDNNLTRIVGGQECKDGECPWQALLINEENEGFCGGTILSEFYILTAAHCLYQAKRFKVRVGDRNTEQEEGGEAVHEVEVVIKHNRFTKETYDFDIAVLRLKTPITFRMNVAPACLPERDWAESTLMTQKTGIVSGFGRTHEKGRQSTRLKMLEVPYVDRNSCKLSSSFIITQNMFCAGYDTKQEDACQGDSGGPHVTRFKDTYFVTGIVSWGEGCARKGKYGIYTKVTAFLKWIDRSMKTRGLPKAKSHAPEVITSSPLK

Row | Binder | Increase in FX activation (fold) [1] | ELISA signal relative to background [2] | ELISA signal relative to background [3] | ELISA signal relative to background [4] | ELISA signal relative to background [5] | ELISA signal relative to background [6] | ELISA signal relative to background [7] | ELISA signal relative to background [8] | ELISA signal relative to background [9] | ELISA signal relative to background [10] | ELISA signal relative to background [11] | ELISA signal relative to background [12] | ELISA signal relative to background [13] | ELISA signal relative to background [14] | ELISA signal relative to background [15] | ELISA signal relative to background [16] | ELISA signal relative to background [17] | ELISA signal relative to background [19] | ELISA signal relative to background [20] | ELISA signal relative to background [21] | also measured
1 | B1 | > 32 fold | 1.22 | 1.11 | 1.06 | 1.21 | 1.07 | 3.41 | 8.06 | 1.15 | 1.17 | 3.14 | 1.13 | 1.1 | 1.11 | 1.08 | 1.18 | 1.06 | 1.08 | 1.06 | 1.04 | ELISA signal relative to background [18]: 1.13; ELISA signal relative to background [22]: 1.1; ELISA signal relative to background [23]: 1.14; ELISA signal relative to background [24]: 1.12; ELISA signal relative to background [25]: 1.12; ELISA signal relative to background [26]: 1.08; ELISA signal relative to background [27]: 1.11; ELISA signal relative to background [28]: 1.09; ELISA signal relative to background [29]: 1.17; ELISA signal relative to background [30]: 1.09; ELISA signal relative to background [31]: 1.37
2 | B2 | 83 fold | 1.17 | 0.79 | 0.97 | 0.82 | 0.84 | 2.16 | 3.43 | 3.27 | 0.92 | 4.38 | 0.82 | 0.87 | 0.84 | 1.14 | 0.81 | 0.83 | 0.88 | 0.89 | 0.72 | ELISA signal relative to background [18]: 1.09; ELISA signal relative to background [32]: 0.84; ELISA signal relative to background [22]: 0.88; ELISA signal relative to background [23]: 0.76; ELISA signal relative to background [24]: 0.77; ELISA signal relative to background [25]: 0.82; ELISA signal relative to background [26]: 0.89; ELISA signal relative to background [27]: 0.73; ELISA signal relative to background [28]: 0.81; ELISA signal relative to background [29]: 0.75; ELISA signal relative to background [30]: 0.82; ELISA signal relative to background [31]: 0.93
3 | B3 | 18.9 fold | 3.08 | 0.97 | 0.77 | 1 | 0.88 | 3.13 | 4 | 4.38 | 1.13 | 4.84 | 0.98 | 0.94 | 1.08 | 0.89 | 0.88 | 1.1 | 0.83 | 0.88 | 0.88 | ELISA signal relative to background [32]: 1.11; ELISA signal relative to background [22]: 0.8; ELISA signal relative to background [23]: 0.96; ELISA signal relative to background [24]: 0.96; ELISA signal relative to background [25]: 0.97; ELISA signal relative to background [26]: 1; ELISA signal relative to background [27]: 0.91; ELISA signal relative to background [28]: 0.87; ELISA signal relative to background [29]: 0.97; ELISA signal relative to background [30]: 1.06; ELISA signal relative to background [31]: 1.05
